Reference: patent US20180222987A1
Positions count from the first letter of the chain named.

B1: 12D2-E5 Fab (Fab, V domains shown)
VH: EVKLVESGGGLVQPGRSLRLSCAASGFNFYAYWMGWVRQAPGKGLEWIGEIKKDGTTINYTPSLKDRFTISRDNAQNTLYLQMTKLGSEDTALYYCAREERDGYFDYWGQGVMVTVSS
VL: QFVLTQPNSVSTNLGSTVKLSCKRSTGNIGSNYVNWYQQHEGRSPTTMIYRDDKRPDGVPDRFSGSIDRSSNSALLTINNVQTEDEADYFCQSYSSGIVFGGGTKLTVL
B2: 1E6 Fab (Fab, V domains shown)
VH: EVQLVETGGSLVQPGKSLKLTCATSGFTFSYAWMHWVRQSPDKQLQWVAQIKAKSNNYATYYAESVEGRFTISRDDSKSSVYLQMNSLKEEDTAIYYCRGVYYGLLGLDAWGQGTSVTVSS
VL: DVVMTQTPVSLSVRLGGQVSISCRSSQSLVHNNGNTYLSWFLQKPGQSPQLLIYKVSNRFSGISDRFSGSASGTDFTLKISRVEPDDLGVYYCGQGTHYPFTFGSGTKLEIK
B3: 13H2 Fab (Fab, V domains shown)
VH: EEELVETGGSLVQPGKSLKLTCATSGFTFSNAWMHWVRQSPDKQLEWVAQIKAKSNNYATYYAESVKGRFTISRDDSKSSVYLQMNNLKEEDTAIYYCRYVHYGLAPMDAWGQGTSVTVSS
VL: B2 VL with R14S, F41Y, P45A, A71G, T77I, Y91F, H98Q, S105A, I111L
B4: 5B1-G2 Fab (Fab, V domains shown)
VH: EVQVVETGGSLVQPGKSLKLTCATSGFSFSNAWMHWVRQSPEKQLEWVAQIKDKANNYATYYAESVKGRFTISRDDSKGSIYLQMNSLKEEDTAVYYCRGLYYGLFPSDYWGQGVMVTVSS
VL: B2 VL with R14S, F41Y, Q43L, S70G, A71G, V83L, V90I, H98Q
B5: CODV-Fab BFX-9B8-G6 × CD3 (bispecific antibody, part only; not given: CD3 arm, linkers, constant domains, tag, V domains shown, not shown: another chain or arm of the molecule; a dimerising Fc or GST; small tags and cut ends)
VH: EVKLQESGPSLVQSSQTLSLTCTVSGFSLTSYHIHWVRQPPGKGLEWMGVMWSDGDTSYSSALKSRLSISRDTSQSQVFLKMNSLQTEDTATYYCARGDYSSYIYLWFAYWGQGTLVTVSS
VL: DIVMTQSPSSLAVSAGETVTINCKSSQSFLSSGDERNYVAWYQHKPGQSPKLLIYWASTRHSGVPDRFIGSGSGTDFTLTISSVQAEDLAIYYCQQYYDTPLTFGSGTKLEIK
B6: CODV-Fab BFX-9D7-C8 × CD3 (bispecific antibody, part only; not given: CD3 arm, linkers, constant domains, tag, V domains shown, not shown: another chain or arm of the molecule; a dimerising Fc or GST; small tags and cut ends)
VH: B5 VH with P40T, S60N, D99Y, I104L
VL: B5 VL with A15E, E35G, R36K, H44Y, H61Q, S83T
B7: CODV-Fab BFX-2F8-D6 × CD3 (bispecific antibody, V domains shown, not shown: a dimerising Fc or GST; small tags and cut ends)
VH: QVQLKESGPGLVQPSQTLSLTCTVSGFSLTSYGVSWVRQPPGKGLEWIATISSAGSTYYDLVLKSRLSITRDTSKSQVFLKVHSLQTEDTAIYLCARDAPVFNYGSYNAMDSWGQGTSVTVSS
VL: DIQMTQSPSFLSATVGDRVTINCKASQNINKYLNWYQQKLGEAPKRLIYNTNSLQTGIPSRFSGSGSGTDYTLTISSLQPEDVATYFCLQHKSGLTFGSGTKLEIK
B8: CODV-Fab BFX-3E3-D3 × CD3 (bispecific antibody, part only; not given: CD3 arm, linkers, constant domains, V domains shown, part only)
VH: QVQLQESGPGLVQPSQTLSLTCTVSGFSLTTYDVHWVRQPPGKGLEWMGRIQNGGITDYNSALKSRLIISRDTSKSQVFLKMNSVQTEDTAMYFCAKTGSYFYAFDHWGQGTLVTVSS
VL: QFVLTQPNSVSTNLGSTVKLSCKRNTGNIGSNYVNWYQQHEGRSPTTMIYRDDKRPDGVPDRFSGSIDRSSNSALLTINNVQTEDEADYFCQSYSSGINIIFGGGTKLTVL
B9: CODV-Fab BFX-9F6-G3 × CD3 (bispecific antibody, part only; not given: CD3 arm, linkers, constant domains, tag, V domains shown, not shown: another chain or arm of the molecule; a dimerising Fc or GST; small tags and cut ends)
VH: QVQLQESGPTLVKPGDSVKMSCKASGYTFTDYIIHWVKQSHGKSLEWIGYINPYSDGTNYNEKFKSKATLTVDKSTSTAYMEFSRLTSEDSAIYFCALNYGSYYAMDAWGQGTSVTVSS
VL: DIQMTQSPASLSASLGETVTIECRPSEDIHSNVAWYQQKPGNSPQLLIYDASNLADGVPSRFSGSGSGTQYSLKINSLQSEDVASYFCHQYNIYPYTFGSGTKLELK
B10: humanized 4B4 Fab 4B4_5 (VL2C / VH6D) (Fab, V domains shown)
VH: QVQLVESGGGVVQPGRSLRLSCATSGFTFSNAWMHWVRQAPGKQLEWVAQIKARSNNYATYYADSVKGRFTISRDDSKSTIYLQMNSLRAEDTAVYYCRGTYYASKPFDYWGQGTLVTVSS
VL: DIVMTQTPLSLSVTPGQPASISCKSSQSLVHDNGNTYLSWSLQKPGQSPQVLIYKVSNRFSGVPDRFSGSGSGTDFTLKISRVEAEDVGVYYCGQGTQYPFTFGSGTKLEIK
B11: humanized 4B4 Fab 4B4_10 (VL1_CM2 / VH6_BM2) (Fab, V domains shown)
VH: B10 VH with G10R, S21T, T24A, D64E, L116T
VL: B10 VL with I2V, T7S, P15L, A19V, K24R, K44R, Q50R
B12: humanized 4B4 Fab 4B4_20 (VL2F / VH6C) (Fab, V domains shown)
VH: B10 VH with T24A, I81L
VL: B10 VL with G34A, S41Y, V51S, L109V
B13: humanized 4B4 Fab 4B4_11 (VL1_CM3 / VH6_BM2) (Fab, V domains shown)
VH: B10 VH with G10R, S21T, T24A, D64E, L116T
VL: B10 VL with I2V, T7S, P15L, A19V, K24R, G34A, K44R, Q50R
B14: humanized 4B4 Fab 4B4_17 (VL2A / VH2B) (Fab, V domains shown)
VH: EVQLVETGGGLVQPGGSLKLTCATSGFTFSNAWMHWVRQSPEKGLEWVAQIKARSNNYATYYADSVKGRFTISRDDSKSTIYLQMNSLRAEDTAIYYCRGTYYASKPFDYWGQGVMVTVSS
VL: B2 VL with R14S, L15P, Q18P, N32D, F41S, L51V, I63V, S68T, A71G, H98Q
B15: humanized 4B4 Fab 4B4_6 (VL1a / VH1A) (Fab, V domains shown)
VH: B14 VH with E1Q, Q13K, G16Q, D64E, R89T, A90P
VL: DVVMTQTPVSLSVSVGGRVSISCRSSQSLVHDNGNTYLSWSLQKPGKSPKVLIYKVSNRFSGVSSRFTGSGSGTDFTLKISSVQPDDLGVYYCGQGTQYPFTFGSGTKLEIK
B16: humanized 4B4 Fab 4B4_7 (VL1b / VH1A) (Fab, V domains shown)
VH: B14 VH with E1Q, Q13K, G16Q, D64E, R89T, A90P
VL: B15 VL with G34A
B17: humanized 4B4 Fab 4B4_9 (VL2B / VH2A) (Fab, V domains shown)
VH: B14 VH with D64E
VL: B15 VL with V15P, R18P, G34A, K47Q, K50Q, S65D, S82R, Q84E
B18: CODV-Fab 7G3 × OKT3 (bispecific antibody, part only; not given: OKT3 variable domains, full chains, V domains shown, part only)
VH: EVQLQQSGPELVKPGASVKMSCKASGYTFTDYYMKWVKQSHGKSLEWIGDIIPSNGATFYNQKFKGKATLTVDRSSSTAYMHLNSLTSEDSAVYYCTRSHLLRASWFAYWGQGTLVTVSA
VL: DFVMTQSPSSLTVTAGEKVTMSCKSSQSLLNSGNQKNYLTWYLQKPGQPPKLLIYWASTRESGVPDRFTGSGSGTDFTLTISSVQAEDLAVYYCQNDYSYPYTFGGGTKLEIK

Target: Macaca fascicularis CD3ε/δ-Fc fusion heterodimer (Macaca fascicularis) (UniProt Q95LI8)
Test: SPR, cyno against human CD3ε/δ

Macaca fascicularis CD3ε/δ-Fc fusion heterodimer (Macaca fascicularis), sequence (chain, as listed by the source mutant, chain 1 of 2): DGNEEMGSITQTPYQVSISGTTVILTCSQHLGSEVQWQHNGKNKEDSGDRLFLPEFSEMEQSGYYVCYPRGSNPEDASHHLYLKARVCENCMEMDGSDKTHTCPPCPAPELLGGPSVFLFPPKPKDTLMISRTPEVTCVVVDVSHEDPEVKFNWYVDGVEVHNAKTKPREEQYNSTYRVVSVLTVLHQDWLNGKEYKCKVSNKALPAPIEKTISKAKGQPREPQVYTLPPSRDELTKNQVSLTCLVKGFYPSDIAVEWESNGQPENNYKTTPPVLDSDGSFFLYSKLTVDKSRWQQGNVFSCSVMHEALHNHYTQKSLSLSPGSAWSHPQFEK
Macaca fascicularis CD3ε/δ-Fc fusion heterodimer (Macaca fascicularis), sequence (Q95LI8 22-105, stated change not applied, chain 2 of 2): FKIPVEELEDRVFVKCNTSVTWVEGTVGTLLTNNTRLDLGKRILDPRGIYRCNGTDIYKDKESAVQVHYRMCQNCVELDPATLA

Row | Binder | ratio KD(cy)/KD(hu)
1 | B1 | 4
2 | B2 | 1
3 | B3 | 1
4 | B4 | 1

Target: human CD123 on cells (human) (UniProt P26951)
Test: flow cytometry, TF-1 cells, 3 µg antibody

human CD123 on cells (human), sequence (P26951 19-378): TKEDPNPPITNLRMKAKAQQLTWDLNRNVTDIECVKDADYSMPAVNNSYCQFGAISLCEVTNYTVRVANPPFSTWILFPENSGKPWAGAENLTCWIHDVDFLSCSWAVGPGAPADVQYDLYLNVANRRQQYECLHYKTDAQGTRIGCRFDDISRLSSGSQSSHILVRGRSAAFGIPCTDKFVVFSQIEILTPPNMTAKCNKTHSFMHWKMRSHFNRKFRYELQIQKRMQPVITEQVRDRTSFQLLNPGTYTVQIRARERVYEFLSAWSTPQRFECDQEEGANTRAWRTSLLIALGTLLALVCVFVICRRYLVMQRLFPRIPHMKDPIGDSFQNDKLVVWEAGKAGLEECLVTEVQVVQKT

Row | Binder | % FITC positive cells
5 | B5 | 31.1%
6 | B6 | 50.2%
7 | B7 | 9.3%
8 | B8 | 31.6%
9 | B9 | 60.7%

Target: Macaca fascicularis CD3ε/δ-Fc fusion heterodimer (Macaca fascicularis) (UniProt Q95LI8)
Test: SPR, steady state

Row | Binder | Kd
10 | B1 | 4.8 nM

Target: Macaca fascicularis CD3ε/δ-Fc fusion heterodimer (Macaca fascicularis) (UniProt Q95LI8)
Test: SPR Biacore, Fab; unit inferred

Row | Binder | Kd
11 | B10 | 16.6 nM
12 | B11 | 8.94 nM
13 | B12 | 43.4 nM
14 | B13 | 20.4 nM
15 | B14 | 9.07 nM
16 | B15 | 1.19 nM
17 | B16 | 7.28 nM
18 | B17 | 12.1 nM

Target: human CD123 on cells (human) (UniProt P26951)
Test: cell-based or functional assay

Row | Binder | Activity EC50 (cytotoxic assay, THP-1 targets + primary human T cells) | EC50 cytotoxic assay (THP-1), geomean
19 | B18 | 0.016 µg/mL | 
20 | B8 |  | 0.0122 µg/mL

Target: human CD123 on cells (human) (UniProt P26951)
Test: flow cytometry, THP-1 cells, 3 µg antibody

Row | Binder | % FITC positive cells
21 | B5 | 48.8%
22 | B6 | 88.7%
23 | B7 | 24%
24 | B8 | 99%
25 | B9 | 99.7%

Target: Macaca fascicularis CD3ε/δ-Fc fusion heterodimer (Macaca fascicularis) (UniProt Q95LI8)
Test: SPR, CD3ε/δ-Fc captured, Fab analyte

Row | Binder | Kd | koff | kon
26 | B2 | 42 nM | 0.0042 s⁻¹ | 100000 M⁻¹ s⁻¹
27 | B3 | 32 nM | 0.0059 s⁻¹ | 180000 M⁻¹ s⁻¹
28 | B4 | 4.3 nM | 0.00015 s⁻¹ | 34000 M⁻¹ s⁻¹
